For assay [1], the target named is T1, Flag tag-Bcl-xL (UniProt Q07817 1-233).
T1 construct: Expressed in transfected COS cells; also called Flag-Bcl-xL
Put plainly: co-immunoprecipitation from transfected COS cells (summarised in FIG. 6).

The target in assay [2] is GST-PEM bacterially-expressed fusion protein (Bak residues 58-103 fused to GST) (UniProt P08515 1-218 = GST; Q16611 58-103). Nature of the assay: GST pull-down of in vitro translated 35S labeled protein.
Assay [3] addresses GST alone (purified, bacterially expressed) (UniProt P08515 1-218 = GST). Put plainly: GST pull-down on glutathione-agarose, autoradiography.

T1 sequence (Q07817 whole entry): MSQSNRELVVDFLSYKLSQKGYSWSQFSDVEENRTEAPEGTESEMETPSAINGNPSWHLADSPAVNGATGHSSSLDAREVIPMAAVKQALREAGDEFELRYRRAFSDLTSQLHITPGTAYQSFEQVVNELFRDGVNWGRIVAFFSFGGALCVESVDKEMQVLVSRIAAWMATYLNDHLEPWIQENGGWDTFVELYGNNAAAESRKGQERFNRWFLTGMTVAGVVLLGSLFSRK
Chain of GST-PEM bacterially-expressed fusion protein (Bak residues 58-103 fused to GST) (P08515 1-218, tags or fused parts left off): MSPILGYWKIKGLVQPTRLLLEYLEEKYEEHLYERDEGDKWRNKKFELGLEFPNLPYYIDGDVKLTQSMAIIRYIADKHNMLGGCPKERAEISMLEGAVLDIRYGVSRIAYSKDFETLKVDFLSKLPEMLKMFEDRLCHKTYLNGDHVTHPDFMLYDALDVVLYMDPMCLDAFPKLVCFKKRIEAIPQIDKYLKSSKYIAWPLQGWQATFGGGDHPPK
Chain of GST alone (purified, bacterially expressed) (P08515 whole entry): as the sequence (P08515 1-218, tags or fused parts left off) above

B1: Bax ΔGD mutant (other, UniProt Q07812 1-192, looked up)
chain: MDGSGEQPRGGGPTSSEQIMKTGALLLQGFIQDRAGRMGGEAPELALDPVPQDASTKKMELQRMIAAVDTDSPREVFFRVAADMFSDGNFNWGRVVALFYFASKLVLKALCTKVPELIRTIMGWTLDFLRERLLGWIQDQGGWDGLLSYFGTPTWQTVTIFVAGVLTASLTIWKKMG
For the molecule B1, in assay [1], the binding result is “no binding”.

B2: Bip1a (other, UniProt Q13323 1-160, looked up)
chain: MSEVRPLSRDILMETLLYEQLLEPPTMEVLGMTDSEEDLDPMEDFDSLECMEGSDALALRLACIGDEMDVSLRAPRLAQLSEVAMHSLGLAFIYDQTEDIRDVLRSFMDGFTTLKENIMRFWRSPNPGSWVSCEQVLLALLLLLALLLPLLSGGLHLLLK
notes: Used in vitro translated and 35S labeled, and expressed in transfected COS cells; also called in vitro translated, 35S labeled Bip1a
Take B2: the binding result in assay [2] is “no binding”.

B3: Bak, in vitro translated, 35S-methionine labeled (other, UniProt Q16611 1-211, looked up)
chain: MASGQGPGPPRQECGEPALPSASEEQVAQDTEEVFRSYVFYRHQQEQEAEGVAAPADPEMVTLPLQPSSTMGQVGRQLAIIGDDINRRYDSEFQTMLQHLQPTAENAYEYFTKIATSLFESGINWGRVVALLGFGYRLALHVYQHGLTGFLGQVTRFVVDFMLHHCIARWIAQRGGWVAALNLGNGPILNVLVVLGVVLLGQFVVRRFFKS
modifications: 35S-methionine label
notes: also called 35S labeled in vitro translated Bak; 35Met-labeled Bak
As to B3, in assay [3], the binding result was “no binding”.

B4: Bip1a ΔGD mutant (other, UniProt Q13323 1-160, looked up)
chain: MSEVRPLSRDILMETLLYEQLLEPPTMEVLGMTDSEEDLDPMEDFDSLECMEGSDALRAPRLAQLSEVAMHSLGLAFIYDQTEDIRDVLRSFMDGFTTLKENIMRFWRSPNPGSWVSCEQVLLALLLLLALLLPLLSGGLHLLLK
In the case of B4, in assay [1], the binding result is listed as “no binding”.
